Laboratory results reported in paper PMC6941229.

Target: SBP-Asi2 (S. cerevisiae) (UniProt P53895)
Chain of UniProt P53895 (P53895 whole entry): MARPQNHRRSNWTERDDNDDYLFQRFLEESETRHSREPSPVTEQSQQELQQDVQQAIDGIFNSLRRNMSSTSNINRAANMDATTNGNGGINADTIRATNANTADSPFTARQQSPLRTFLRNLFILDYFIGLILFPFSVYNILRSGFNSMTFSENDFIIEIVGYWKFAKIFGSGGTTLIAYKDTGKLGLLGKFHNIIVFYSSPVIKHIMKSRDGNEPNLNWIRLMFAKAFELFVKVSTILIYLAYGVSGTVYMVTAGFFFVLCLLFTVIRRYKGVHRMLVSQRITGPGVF

Chain of TM68-MBP (P10614 1-68): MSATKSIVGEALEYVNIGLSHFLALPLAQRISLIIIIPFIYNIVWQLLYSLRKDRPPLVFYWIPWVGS

Substance “TM68-MBP (from UniProt P10614 1-68) (domain or fragment)” has a ubiquitination of TM68-MBP in proteoliposomes with only the Asi1/Asi3 subcomplex (no Asi2), against proteoliposomes with the entire Asi complex; Ubi Mix, 60 min of 28%.
